{"source": "patent US20230203471A1", "about": "“METHOD AND PLATFORM FOR DISRUPTING INTRACELLULAR MICROTUBULES” (National Tsing Hua University, priority 2021, published 2023)", "molecules": {"B1": {"name": "YFP-tagged truncated spastin without the N-terminal 1-140 amino acids (dNSpastin-YFP) (enzyme)", "chain": "MESGAVPKRKDPLTHASNSLPRSKTVLKSGSAGLSGHHRAPSCSGLSMVSGARPGPGPAATTHKGTPKPNRTNKPSTPTTAVRKKKDLKNFRNVDSNLANLIMNEIVDNGTAVKFDDIAGQELAKQALQEIVILPSLRPELFTGLRAPARGLLLFGPPGNGKTMLAKAVAAESNATFFNISAASLTSKYVGEGEKLVRALFAVARELQPSIIFIDEVDSLLCERREGEHDASRRLKTEFLIEFDGVQSAGDDRVLVMGATNRPQELDEAVLRRFIKRVYVSLPNEETRLLLLKNLLCKQGSPLTQKELAQLARMTDGYSGSDLTALAKDAALGPIRELKPEQVKNMSASEMRNIRLSDFTESLKKIKRSVSPQTLEAYIRWNKDFGDTTV"}, "B2": {"name": "YFP-tagged full-length spastin (SpastinFL-YFP) (enzyme)", "chain": "MAAKRSSGTAPAPASPSPPAPGPGGEAESVRVFHKQAFEYISIALRIDEEEKGQKEQAVEWYKKGIEELEKGIAVIVTGQGEQYERARRLQAKMMTNLVMAKDRLQLLEKLQPVLQFSKSQTDVYNESTNLTCRNGHLQSESGAVPKRKDPLTHASNSLPRSKTVLKSGSAGLSGHHRAPSCSGLSMVSGARPGPGPAATTHKGTPKPNRTNKPSTPTTAVRKKKDLKNFRNVDSNLANLIMNEIVDNGTAVKFDDIAGQELAKQALQEIVILPSLRPELFTGLRAPARGLLLFGPPGNGKTMLAKAVAAESNATFFNISAASLTSKYVGEGEKLVRALFAVARELQPSIIFIDEVDSLLCERREGEHDASRRLKTEFLIEFDGVQSAGDDRVLVMGATNRPQELDEAVLRRFIKRVYVSLPNEETRLLLLKNLLCKQGSPLTQKELAQLARMTDGYSGSDLTALAKDAALGPIRELKPEQVKNMSASEMRNIRLSDFTESLKKIKRSVSPQTLEAYIRWNKDFGDTTV"}, "B3": {"name": "dNSpastin3Q-mCh—Cry2: dNSpastin3Q tagged with mCh-Cry2 (protein)", "chain": "MESGAVPKRKDPLTHASNSLPRSKTVLKSGSAGLSGHHRAPSCSGLSMVSGARPGPGPAATTHKGTPKPNRTNKPSTPTTAVRQQQDLKNFRNVDSNLANLIMNEIVDNGTAVKFDDIAGQELAKQALQEIVILPSLRPELFTGLRAPARGLLLFGPPGNGKTMLAKAVAAESNATFFNISAASLTSKYVGEGEKLVRALFAVARELQPSIIFIDEVDSLLCERREGEHDASRRLKTEFLIEFDGVQSAGDDRVLVMGATNRPQELDEAVLRRFIKRVYVSLPNEETRLLLLKNLLCKQGSPLTQKELAQLARMTDGYSGSDLTALAKDAALGPIRELKPEQVKNMSASEMRNIRLSDFTESLKKIKRSVSPQTLEAYIRWNKDFGDTTVMKMDKKTIVWFRRDLRIEDNPALAAAAHEGSVFPVFIWCPEEEGQFYPGRASRWWMKQSLAHLSQSLKALGSDLTLIKTHNTISAILDCIRVTGATKVVFNHLYDPVSLVRDHTVKEKLVERGISVQSYNGDLLYEPWEIYCEKGKPFTSFNSYWKKCLDMSIESVMLPPPWRLMPITAAAEAIWACSIEELGLENEAEKPSNALLTRAWSPGWSNADKLLNEFIEKQLIDYAKNSKKVVGNSTSLLSPYLHFGEISVRHVFQCARMKQIIWARDKNSEGEESADLFLRGIGLREYSRYICFNFPFTHEQSLLSHLRFFPWDADVDKFKAWRQGRTGYPLVDAGMRELRATGWMHNRIRVIVSSFAVKFLLLPWKWGMKYFWDTLLDADLECDILGWQYISGSIPDGHELDRLDNPALQGAKYDPEGEYIRQWLPELARLPTEWIHHPWDAPLTVLKASGVELGTNYAKPIVDIDTARELLAKAISRTREAQIMIGAA"}}, "key": {"[1]": {"test_system": "intracellular microtubules in HeLa cells", "assay": "Live-cell imaging of MT disruption (MT filament area) in transfected HeLa cells", "format": "cell-based", "description": "The procedures of live-cell imaging are as follows. Live transfected cells cultured on poly(d-lysine)-coated glass coverslips (Hecht Assistent) were treated with either 100 nM rapamycin for rapid induction of protein dimerization and translocation or MT-targeting agents (10 µM nocodazole or 500 µM colchicine) during imaging. Live-cell imaging was conducted on a Nikon T1 inverted fluorescence microscope (Nikon) with a 60× oil objective (Nikon), a Prime camera (Photometrics), and 37° C., 5% CO2 heat stage (Live Cell Instrument). Rapid recruitment of proteins of interest (POIs) was imaged at 5- or 10-sec intervals, whereas the process of MT disruption was imaged at 1-min intervals. Images were obtained using Nikon NIS-Elements AR software and processed with Huygens Deconvolution Software (Scientific Volume Imaging). Image analysis was mainly performed with Nikon NIS-Elements AR software.\nThe procedures of measurement of MT filament area are as follows. The MT filaments in living cells were labeled with EMTB-CFP-FRB and imaged in real time (RAW image). The rolling ball correction was used to remove the cytosol background from the RAW images, which was carried out with the Nikon NIS-Elements AR software. Images were processed to generate the binary MT filament pattern via the Otsu threshold and analyzed by Fiji software.\nFIGS. 2D and 2E show rapidly recruiting engineered spastins onto MTs. […] The top three layers are cells that simultaneously express EMTB-CFP-FRB and dNSpastin3Q-YFP-FKBP. The lower three layers are cells that simultaneously express EMTB-CFP-FRB and dNSpastin-YFP-FKBP-C2Lact. The color bar on the right indicates the brightness value represented by the color of the FRET signal. […] Data are shown as the mean ± S.E.M. It was noteworthy that MT disruption triggered by dNSpastin3Q-YFP-FKBP upon rapamycin treatment (T½ = 11.05 ± 1.52 min) was much faster than that of dNSpastin-YFP-FKBP-C2Lact upon rapamycin treatment (T½ = 53.08 ± 8.08 min), and treatment of two common MTAs, nocodazole (10 µM; T½ = 54.02 ± 10.29 min), colchicine (500 µM; T½ = 94.28 ± 8.63 min; see FIGS. 2F to 2J). […] In FIG. 2H, HeLa cells transfected with the indicated constructs were treated with nocodazole (Noc)([…], a type of MTA), colchicine (Col)(500 µM, a type of MTA), or rapamycin (Rapa)(100 nM); scale bar, 10 µm. […] Data are shown as the mean ± S.E.M. Student’s t-tests were performed, with the resulting p-values indicated."}, "[2]": {"molecular_target": "MT-binding domain of ensconsin-cyan fluorescent protein-FKBP-rapamycin binding domain (EMTB-CFP-FRB) (Artificial Sequence)", "sequence (chain, as listed by the source)": "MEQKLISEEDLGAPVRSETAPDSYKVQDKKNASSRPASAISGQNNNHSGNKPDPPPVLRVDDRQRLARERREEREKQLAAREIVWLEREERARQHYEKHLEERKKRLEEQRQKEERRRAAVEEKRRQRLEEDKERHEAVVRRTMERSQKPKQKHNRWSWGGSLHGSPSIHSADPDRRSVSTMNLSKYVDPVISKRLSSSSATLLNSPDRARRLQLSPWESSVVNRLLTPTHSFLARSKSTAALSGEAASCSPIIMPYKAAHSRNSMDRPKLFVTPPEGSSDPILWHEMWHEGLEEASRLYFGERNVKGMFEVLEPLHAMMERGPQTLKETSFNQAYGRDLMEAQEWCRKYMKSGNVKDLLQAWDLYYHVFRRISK", "assay": "FRET live-cell imaging in co-transfected HeLa cells, 100 nM rapamycin"}, "[3]": {"test_system": "cytosolic MTs in HeLa cells", "assay": "Immunofluorescence staining of α-tubulin in HeLa cells expressing spastin constructs", "format": "cell-based", "settings": "expression in HeLa cells, α-tubulin intensity", "description": "The procedures of immunofluorescence staining are as follows. Cells cultured in borosilicate glass Lab-Tek eight-well chambers (Nunc) were fixed in 4% paraformaldehyde (Electron Microscopy Sciences) at room temperature for 15 min. Fixed cells were permeabilized with 0.1% Triton X-100 and then incubated in blocking solution (phosphate-buffered saline with 2% bovine serum albumin) for 30 min at room temperature. To label cytosolic MTs, primary ciliary membrane, and axonemal MTs, cells were incubated for 1 hr at room temperature with mouse antibody against α-tubulin (1:500; Sigma Aldrich, T6199), rabbit antibody against Arl13b (1:500; Proteintech, 17711-1-AP), mouse antibody against glutamylated tubulin (1:100; Adipogen, AG-20B-0020-C100), mouse antibody against acetylated tubulin (1:500; Sigma Aldrich, T7451), rat antibody against tyrosinated tubulin (1:100; Sigma Aldrich, MAB1864), and mouse antibody against detyrosinated tubulin (1:100; MERCK, AB3201) each of which was diluted in blocking solution. Cells were then washed with PBS and incubated for 1 hr with appropriate secondary antibodies (1:1000 dilution; Thermo Fisher) at room temperature.\nSpastin is a MT-cleaving enzyme that is ubiquitous in nearly all eukaryotic cells. Expression of full-length spastin (SpastinFL-YFP; the amino acid sequence of spastin is SEQ ID NO: 1) and truncated spastin without the N-terminal 1-140 amino acids (dNSpastin-YFP) in HeLa cells removed significant amounts of cytosolic MTs, 47.45% and 42.86%, respectively, relative to YFP-transfected control cells (See FIGS. 2A to 2C). This means that both full-length spastin and truncated spastin without N-terminal 1-140 amino acids have the effect on disrupting microtubules. FIGS. 2A to 2C show the microtubule cleavage activity of artificially engineered spastin enzyme. […] The dotted line on the right indicates the periphery of the cell that expresses spastin. […] SpastinFL expressed in cells can disrupt the intracellular microtubules. Making SpastinFL be located in the cytosol, truncated spastin would also disrupt the intracellular microtubules, so it would also be located in the cytosol. […] The truncated spastin is used in the subsequent experiments. […] Compared with the YFP control group, both SpastinFL-YFP and dNSpastrin-YFP can disrupt about 40% of the microtubules. Thus the N-terminal fragment (1-140 amino acids) was dispensable for Spastin-mediated MT severing. […]"}, "[4]": {"molecular_target": "intracellular microtubules (MTs)"}, "[5]": {"test_system": "EMTB-YFP-CIBN-labeled MTs in COS7 cells", "assay": "Blue-light-induced recruitment of Cry2 proteins onto EMTB-YFP-CIBN-labeled MTs and MT disassembly", "format": "cell-based, African green monkey", "description": "The procedures of photostimulation are as follows. COS7 cells were plated on poly(d-lysine)-coated coverslips and cultured in six-well plates (Thermo Scientific) for 48 hr. Before imaging, cells were incubated with SPY650-tubulin (1000-fold dilution; Spirochrome) at 37° C. for 1 hr. Local photostimulation was carried out with a fluorescence microscope (Nikon) equipped with a digital micromirror device, polygon 400 (MIGHTEX), and a 488-nm light source. Cells were illuminated with the blue light (5 sec on/1 sec off; 1.6 nW/µm^2) for the indicated duration. The mCherry and SPY650-tubulin were simultaneously imaged during photostimulation using Nikon element AR software.\nThe inventors next tried to use an optogenetic system to trigger MT disassembly in a sub-cellular region of interest during a specific period of time. Cryptochrome 2 (Cry2) (SEQ ID NO:14) and CIBN (N-terminal 170 amino acids of CIB1) (SEQ ID NO:15), two blue light-sensitive dimerizing partners, were used in our MT-manipulating system. Cry2, which was tagged with the red fluorescent protein mCherry (mCh—Cry2), was rapidly translocated onto EMTB—YFP—CIBN-labeled MTs only in regions illuminated with light (T½ = 34.6 ± 7.58 sec) and dissociated from MTs to the cytosol when the light was off (T½ = 28.2 ± 4.88 sec; see FIGS. 6A and 6B).\nFIGS. 6A and 6B show using light to disassemble MTs in a reversible and location-specific manner. In FIG. 6A, COS7 cells co-transfected with EMTB—YFP—CIBN and mCh—Cry2 (red) were incubated with SPY650-tubulin (SPY650-tub) to visualize MTs; the cells were illuminated by blue light within a specified region (indicated by the dotted circle) for the indicated time period; scale bar, 10 µm.\nThe inventors then used light to control spastin-mediated MT disassembly in a spatially and temporally specific manner. dNSpastin3Q tagged with mCh-Cry2 was co-expressed with EMTB—YFP—CIBN in COS7 cells. MTs were labeled with SPY650-tubulin in these experiments.\nFIGS. 6C and 6D show using light to disassemble MTs in a reversible and location-specific manner. In FIG. 6C, COS7 cells co-transfected with EMTB-YFP-CIBN and dNSpastin3Q-mCh—Cry2 were incubated with SPY650-tubulin to visualize MTs; the cells were illuminated by blue light as in FIG. 6A; scale bar, 10 µm. […] Data are shown as the mean ± S.E.M."}}, "data": [{"molecule": "COc1cc2c(c(OC)c1OC)-c1ccc(OC)c(=O)cc1[C@@H](NC(C)=O)CC2", "note": "[colchicine]", "values": [{"measurement": "microtubules removed within one hour", "setting": "[1]; 500 µM colchicine", "result": 49, "unit": "%"}, {"measurement": "time required to disrupt half of the intracellular microtubules", "setting": "[1]; colchicine 500 µM", "result": "94.28 ± 8.63", "unit": "min"}, {"measurement": "T½ of MT disruption", "setting": "[1]; colchicine 500 µM, HeLa cells", "result": "1.571 ± 0.144", "unit": "h"}]}, {"molecule": "yellow fluorescent protein-tagged FKBP (YFP-FKBP)", "values": [{"measurement": "T½ of translocation", "setting": "[2]", "result": 5.73, "unit": "s"}]}, {"molecule": "B1", "values": [{"measurement": "cytosolic MTs removed relative to YFP-transfected control cells", "setting": "[3]", "result": 42.86, "unit": "%"}, {"measurement": "cytosolic MTs removed relative to YFP-transfected control cells", "setting": "[3]; listed as dNSpastrin-YFP", "result": "about 40%"}, {"measurement": "removal of cytosolic MTs (normalized intensity of α-tubulin)", "setting": "[4]", "result": 42.9, "unit": "%"}]}, {"molecule": "B2", "values": [{"measurement": "removal of cytosolic MTs (normalized intensity of α-tubulin)", "setting": "[4]", "result": 47.5, "unit": "%"}]}, {"molecule": "B3", "values": [{"measurement": "reversibility in the dark", "setting": "[5]; COS7 cells placed back in the dark", "result": "MT reassembly occurred"}, {"measurement": "light-induced MT disassembly", "setting": "[5]; COS7 cells, local blue light illumination, SPY650-tubulin", "result": "disassembly of MTs only in illuminated regions"}]}]}
